# Measurements from patent US20210277068A1 (SHANXI KANGBAO BIOLOGICAL PRODUCT, published 2021).
# Values joined by “and” are separate entries in the source; they are usually repeats but may differ in a detail not shown here. Equal values may be shown once. Ends that are not written are not given here. * marks the point of attachment. Stearoyl = CCCCCCCCCCCCCCCCCC(=O)*; Palmitoyl = CCCCCCCCCCCCCCCC(=O)*; Lauroyl = CCCCCCCCCCCC(=O)*; Octanoyl = CCCCCCCC(=O)*
# T1: N39 (HIV-1, N-terminal acetyl (Ac-); C-terminal amide (-NH2))
# T1 peptide: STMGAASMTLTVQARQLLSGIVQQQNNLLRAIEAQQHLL
# B1: LP-65 (peptide)
# peptide: Ac-IEELLKKAEEQQKKNEEELKKLEK(Palmitoyl)-NH2
# SMILES: CCCCCCCCCCCCCCCC(=O)NCCCC[C@H](NC(=O)[C@H](CCC(=O)O)NC(=O)[C@H](CC(C)C)NC(=O)[C@H](CCCCN)NC(=O)[C@H](CCCCN)NC(=O)[C@H](CC(C)C)NC(=O)[C@H](CCC(=O)O)NC(=O)[C@H](CCC(=O)O)NC(=O)[C@H](CCC(=O)O)NC(=O)[C@H](CC(N)=O)NC(=O)[C@H](CCCCN)NC(=O)[C@H](CCCCN)NC(=O)[C@H](CCC(N)=O)NC(=O)[C@H](CCC(N)=O)NC(=O)[C@H](CCC(=O)O)NC(=O)[C@H](CCC(=O)O)NC(=O)[C@H](C)NC(=O)[C@H](CCCCN)NC(=O)[C@H](CCCCN)NC(=O)[C@H](CC(C)C)NC(=O)[C@H](CC(C)C)NC(=O)[C@H](CCC(=O)O)NC(=O)[C@H](CCC(=O)O)NC(=O)[C@@H](NC(C)=O)[C@@H](C)CC)C(N)=O
# notes: N-terminally truncated, based on LP-52; 24 amino acids
# B2: LP-88 (peptide)
# peptide: Ac-EQKIEELLKKAEEQQKKNEEELKKLEK(Stearoyl)-NH2
# SMILES: CCCCCCCCCCCCCCCCCC(=O)NCCCC[C@H](NC(=O)[C@H](CCC(=O)O)NC(=O)[C@H](CC(C)C)NC(=O)[C@H](CCCCN)NC(=O)[C@H](CCCCN)NC(=O)[C@H](CC(C)C)NC(=O)[C@H](CCC(=O)O)NC(=O)[C@H](CCC(=O)O)NC(=O)[C@H](CCC(=O)O)NC(=O)[C@H](CC(N)=O)NC(=O)[C@H](CCCCN)NC(=O)[C@H](CCCCN)NC(=O)[C@H](CCC(N)=O)NC(=O)[C@H](CCC(N)=O)NC(=O)[C@H](CCC(=O)O)NC(=O)[C@H](CCC(=O)O)NC(=O)[C@H](C)NC(=O)[C@H](CCCCN)NC(=O)[C@H](CCCCN)NC(=O)[C@H](CC(C)C)NC(=O)[C@H](CC(C)C)NC(=O)[C@H](CCC(=O)O)NC(=O)[C@H](CCC(=O)O)NC(=O)[C@@H](NC(=O)[C@H](CCCCN)NC(=O)[C@H](CCC(N)=O)NC(=O)[C@H](CCC(=O)O)NC(C)=O)[C@@H](C)CC)C(N)=O
# B3: LP-92 (peptide)
# peptide: Ac-IEELLKKAEEQQKKNEEELKK(Stearoyl)-NH2
# SMILES: CCCCCCCCCCCCCCCCCC(=O)NCCCC[C@H](NC(=O)[C@H](CCCCN)NC(=O)[C@H](CC(C)C)NC(=O)[C@H](CCC(=O)O)NC(=O)[C@H](CCC(=O)O)NC(=O)[C@H](CCC(=O)O)NC(=O)[C@H](CC(N)=O)NC(=O)[C@H](CCCCN)NC(=O)[C@H](CCCCN)NC(=O)[C@H](CCC(N)=O)NC(=O)[C@H](CCC(N)=O)NC(=O)[C@H](CCC(=O)O)NC(=O)[C@H](CCC(=O)O)NC(=O)[C@H](C)NC(=O)[C@H](CCCCN)NC(=O)[C@H](CCCCN)NC(=O)[C@H](CC(C)C)NC(=O)[C@H](CC(C)C)NC(=O)[C@H](CCC(=O)O)NC(=O)[C@H](CCC(=O)O)NC(=O)[C@@H](NC(C)=O)[C@@H](C)CC)C(N)=O
# B4: LP-50 (peptide)
# peptide: Ac-YTSLIEELIKKSEEQQKKNEEELKKLEK(Palmitoyl)-NH2
# SMILES: CCCCCCCCCCCCCCCC(=O)NCCCC[C@H](NC(=O)[C@H](CCC(=O)O)NC(=O)[C@H](CC(C)C)NC(=O)[C@H](CCCCN)NC(=O)[C@H](CCCCN)NC(=O)[C@H](CC(C)C)NC(=O)[C@H](CCC(=O)O)NC(=O)[C@H](CCC(=O)O)NC(=O)[C@H](CCC(=O)O)NC(=O)[C@H](CC(N)=O)NC(=O)[C@H](CCCCN)NC(=O)[C@H](CCCCN)NC(=O)[C@H](CCC(N)=O)NC(=O)[C@H](CCC(N)=O)NC(=O)[C@H](CCC(=O)O)NC(=O)[C@H](CCC(=O)O)NC(=O)[C@H](CO)NC(=O)[C@H](CCCCN)NC(=O)[C@H](CCCCN)NC(=O)[C@@H](NC(=O)[C@H](CC(C)C)NC(=O)[C@H](CCC(=O)O)NC(=O)[C@H](CCC(=O)O)NC(=O)[C@@H](NC(=O)[C@H](CC(C)C)NC(=O)[C@H](CO)NC(=O)[C@@H](NC(=O)[C@H](Cc1ccc(O)cc1)NC(C)=O)[C@@H](C)O)[C@@H](C)CC)[C@@H](C)CC)C(N)=O
# notes: LP-40 with EE**KK ion pairs introduced; also called P50 with C16
# B5: LP-69 (peptide)
# peptide: Ac-IEELLKKAEEQQKKNEEELKK(Palmitoyl)-NH2
# SMILES: CCCCCCCCCCCCCCCC(=O)NCCCC[C@H](NC(=O)[C@H](CCCCN)NC(=O)[C@H](CC(C)C)NC(=O)[C@H](CCC(=O)O)NC(=O)[C@H](CCC(=O)O)NC(=O)[C@H](CCC(=O)O)NC(=O)[C@H](CC(N)=O)NC(=O)[C@H](CCCCN)NC(=O)[C@H](CCCCN)NC(=O)[C@H](CCC(N)=O)NC(=O)[C@H](CCC(N)=O)NC(=O)[C@H](CCC(=O)O)NC(=O)[C@H](CCC(=O)O)NC(=O)[C@H](C)NC(=O)[C@H](CCCCN)NC(=O)[C@H](CCCCN)NC(=O)[C@H](CC(C)C)NC(=O)[C@H](CC(C)C)NC(=O)[C@H](CCC(=O)O)NC(=O)[C@H](CCC(=O)O)NC(=O)[C@@H](NC(C)=O)[C@@H](C)CC)C(N)=O
# notes: Residues 1-21 follow from the statement that LP-69 is LP-65 (24 residues) without its C-terminal LEK
# B6: LP-64 (peptide)
# peptide: Ac-KIEELLKKAEEQQKKNEEELKKLEK(Palmitoyl)-NH2
# SMILES: CCCCCCCCCCCCCCCC(=O)NCCCC[C@H](NC(=O)[C@H](CCC(=O)O)NC(=O)[C@H](CC(C)C)NC(=O)[C@H](CCCCN)NC(=O)[C@H](CCCCN)NC(=O)[C@H](CC(C)C)NC(=O)[C@H](CCC(=O)O)NC(=O)[C@H](CCC(=O)O)NC(=O)[C@H](CCC(=O)O)NC(=O)[C@H](CC(N)=O)NC(=O)[C@H](CCCCN)NC(=O)[C@H](CCCCN)NC(=O)[C@H](CCC(N)=O)NC(=O)[C@H](CCC(N)=O)NC(=O)[C@H](CCC(=O)O)NC(=O)[C@H](CCC(=O)O)NC(=O)[C@H](C)NC(=O)[C@H](CCCCN)NC(=O)[C@H](CCCCN)NC(=O)[C@H](CC(C)C)NC(=O)[C@H](CC(C)C)NC(=O)[C@H](CCC(=O)O)NC(=O)[C@H](CCC(=O)O)NC(=O)[C@@H](NC(=O)[C@H](CCCCN)NC(C)=O)[C@@H](C)CC)C(N)=O
# notes: N-terminally truncated, based on LP-52
# B7: LP-89 (peptide)
# peptide: Ac-KIEELLKKAEEQQKKNEEELKKLEK(Stearoyl)-NH2
# SMILES: CCCCCCCCCCCCCCCCCC(=O)NCCCC[C@H](NC(=O)[C@H](CCC(=O)O)NC(=O)[C@H](CC(C)C)NC(=O)[C@H](CCCCN)NC(=O)[C@H](CCCCN)NC(=O)[C@H](CC(C)C)NC(=O)[C@H](CCC(=O)O)NC(=O)[C@H](CCC(=O)O)NC(=O)[C@H](CCC(=O)O)NC(=O)[C@H](CC(N)=O)NC(=O)[C@H](CCCCN)NC(=O)[C@H](CCCCN)NC(=O)[C@H](CCC(N)=O)NC(=O)[C@H](CCC(N)=O)NC(=O)[C@H](CCC(=O)O)NC(=O)[C@H](CCC(=O)O)NC(=O)[C@H](C)NC(=O)[C@H](CCCCN)NC(=O)[C@H](CCCCN)NC(=O)[C@H](CC(C)C)NC(=O)[C@H](CC(C)C)NC(=O)[C@H](CCC(=O)O)NC(=O)[C@H](CCC(=O)O)NC(=O)[C@@H](NC(=O)[C@H](CCCCN)NC(C)=O)[C@@H](C)CC)C(N)=O
# Assays:
# N39 [1] = target: T1, N39; test: circular dichroism temperature scan at 220 nm of the 1:1 mixture with N39, 10 µM each in PBS pH 7.2
# [2] = target: gp41 of the envelope protein (Env) of the D36G mutant of HIV-1 strain NL4-3 (HIV-1 strain NL4-3); test: cell-based or functional assay
# [3] = target: gp41 of the envelope protein of HIV-1 strain JRCSF (HIV-1 strain JRCSF); test: cell-based or functional assay
# N39 [4] = target: T1, N39; test: circular dichroism of the 1:1 mixture with N39, 10 µM each in PBS pH 7.2
# [5] = target: gp41 of the envelope protein (Env) of HIV-1 strain HXB2 (HIV-1 strain HXB2, UniProt P04578 33-856); test: cell-based or functional assay
# N39 [6] = target: T1, N39; test: circular dichroism temperature scan at 220 nm of the 1:1 mixture with N39, 10 µM each in PBS pH 7.2; difference against LP-52
Binder,Tm value of the complex (N39 [1]),further results
Ac-WEQKIEELLKKAEEQQKKNEEELKKLEK(Stearoyl)-NH2 [LP-80],79 °C,IC50 for inhibiting HIV-1 strain NL4-3 [2]: 2 pM; IC50 for inhibiting HIV-1 strain JRCSF [3]: 2 pM
Ac-WEQKIEELLKKAEEQQKKNEEELKKLEK(Palmitoyl)-NH2 [LP-52],79.1 °C,helix content of the complex (N39 [4]): 63.8%
Ac-WEQKIEELLKKAEEQQKKNEEELKKLEK(Octanoyl)-NH2 [LP-82],65.1 °C,–
B1,> 70 °C and 72.1 °C,helix content of the complex (N39 [4]): 63%
B2,76.5 °C,–
Ac-IEELLKKAEEQQKKNEEELKKLEK(Stearoyl)-NH2 [LP-90],71.1 °C,–
B3,55.1 °C,–
Ac-WEQKIEELLKKAEEQQKKNEEELKKLEK(Lauroyl)-NH2 [LP-81],74.1 °C,–
B4,63.3 °C,IC50 for inhibiting pseudovirus (entry of NL4-3) [2]: 7 pM; IC50 for inhibiting cell fusion (HXB2-cell fusion) [5]: 21 pM; IC50 for inhibiting replicative virus (replication of JRCSF) [3]: 23 pM
B5,51 °C,Tm value lower than that of the LP-52 by (N39 [6]): 28.1 °C
B6,> 70 °C,–
Ac-WEQKIEELLKKAEEQQKKNEEELKK(Stearoyl)-NH2 [LP-91],61 °C,–
"Ac-YTSLIHSLIEESQNQQEKNEQELLELDK (not fully specified (residue 28, C-terminus), also called T-20-based lipopeptide) [LP-40]",51.3 °C,helix content of the complex (N39 [4]): 57.7%
B7,70 °C,–
